Assay [1] has as its target human NOP receptor in HEK293 cells (human) (UniProt P41146).
Assay [2] has the same target. The source holds these as a separate data set.
The target is the same in assay [3]. The source holds these as a separate data set.

Sequence of human NOP receptor in HEK293 cells (human) (P41146 whole entry): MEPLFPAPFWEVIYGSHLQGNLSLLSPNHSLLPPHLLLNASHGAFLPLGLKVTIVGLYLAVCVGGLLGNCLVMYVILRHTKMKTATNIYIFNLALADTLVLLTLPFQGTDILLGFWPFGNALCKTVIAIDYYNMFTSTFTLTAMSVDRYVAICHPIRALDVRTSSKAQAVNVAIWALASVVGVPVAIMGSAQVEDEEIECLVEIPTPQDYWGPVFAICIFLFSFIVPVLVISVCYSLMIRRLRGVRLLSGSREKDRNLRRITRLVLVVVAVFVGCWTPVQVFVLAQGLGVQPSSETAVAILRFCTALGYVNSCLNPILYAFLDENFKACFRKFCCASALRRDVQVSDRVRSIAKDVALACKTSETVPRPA

For “human MOP receptor in HEK293 cells (from UniProt P35372 1-400)”, the ERK1/2 phosphorylation (fold over basal), 1 μM N/OFQ, HEK (MOP/NOP) cells, 2.5-30 min; peak at 7.5-10 min in assay [1] was 5 fold. The same substance had an ERK1/2 phosphorylation (fold over basal), 1 μM Dermorphin, HEK (MOP/NOP) cells, 2.5-30 min; peak at 10 min in assay [2] of 11.8 fold. In assay [3], this substance came in with a GTPγ[35S] binding stimulated by De101, HEK (MOP/NOP) membranes: pEC50 of 8.67; a GTPγ[35S] binding stimulated by DeNO, HEK (MOP/NOP) membranes: pEC50 of 7.63; a GTPγ[35S] binding stimulated by Dermorphin, HEK (MOP/NOP) membranes: pEC50 of 7.6; an inhibition of cAMP formation by De101, HEK (MOP/NOP) cells: Emax (% inhibition) of 86%. Further, in assay [3], the inhibition of cAMP formation by De101, HEK (MOP/NOP) cells: pEC50 turned out to be 8.81; the inhibition of cAMP formation by DeNO, HEK (MOP/NOP) cells: Emax (% inhibition) is 88.6%; the inhibition of cAMP formation by DeNO, HEK (MOP/NOP) cells: pEC50 was determined as 7.55; the inhibition of cAMP formation by Dermorphin & N/OFQ (co-administered), HEK (MOP/NOP) cells: Emax (% inhibition) came out at 81.3%. In addition, in assay [3], the inhibition of cAMP formation by Dermorphin & UFP-101 (co-administered), HEK (MOP/NOP) cells: Emax (% inhibition) is 84.4%; the inhibition of cAMP formation by Dermorphin & UFP-101 (co-administered), HEK (MOP/NOP) cells: pEC50 is 8.95; the inhibition of cAMP formation by Dermorphin, HEK (MOP/NOP) cells: Emax (% inhibition) is 81.4%; the inhibition of cAMP formation by Dermorphin, HEK (MOP/NOP) cells: pEC50 was 7.59. In assay [3], this substance gave an inhibition of cAMP formation by N/OFQ, HEK (MOP/NOP) cells: Emax (% inhibition) of 86.3% and an inhibition of cAMP formation by N/OFQ, HEK (MOP/NOP) cells: pEC50 of 9.17.

The values are drawn from publication PMC8782398.
